One series deals with GST (UniProt P08515 P08515:1-218). The experiment in a line: GST control.
Series [1] addresses T1, ZNFN3A1 (SMYD3) (Homo sapiens, UniProt Q9H7B4 SEQ:1-428).
T1 chain: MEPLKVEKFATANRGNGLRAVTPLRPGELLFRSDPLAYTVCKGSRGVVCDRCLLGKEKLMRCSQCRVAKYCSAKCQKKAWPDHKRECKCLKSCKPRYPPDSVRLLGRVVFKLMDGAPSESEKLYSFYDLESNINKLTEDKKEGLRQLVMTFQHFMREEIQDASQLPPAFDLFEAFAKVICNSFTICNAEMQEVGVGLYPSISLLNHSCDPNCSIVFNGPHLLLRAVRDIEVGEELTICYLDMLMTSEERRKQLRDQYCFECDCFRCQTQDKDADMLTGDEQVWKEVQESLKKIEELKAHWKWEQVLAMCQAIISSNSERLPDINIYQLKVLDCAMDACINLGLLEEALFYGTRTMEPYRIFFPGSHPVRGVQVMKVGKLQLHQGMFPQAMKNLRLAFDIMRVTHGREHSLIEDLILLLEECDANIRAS
Description: in vitro binding assay; inhibited by cold competitor DNA. The conditions noted are these: tags: GST fusion, E. coli.

The target in the next series is Tcf4 wild-type (UniProt Q9NQB0 Q9NQB0:1-619). The experiment in a line: positive control. The conditions noted are these: tags: GST fusion.
Tcf4 wild-type, sequence (Q9NQB0 whole entry, the tested form may be a part, one chain of several): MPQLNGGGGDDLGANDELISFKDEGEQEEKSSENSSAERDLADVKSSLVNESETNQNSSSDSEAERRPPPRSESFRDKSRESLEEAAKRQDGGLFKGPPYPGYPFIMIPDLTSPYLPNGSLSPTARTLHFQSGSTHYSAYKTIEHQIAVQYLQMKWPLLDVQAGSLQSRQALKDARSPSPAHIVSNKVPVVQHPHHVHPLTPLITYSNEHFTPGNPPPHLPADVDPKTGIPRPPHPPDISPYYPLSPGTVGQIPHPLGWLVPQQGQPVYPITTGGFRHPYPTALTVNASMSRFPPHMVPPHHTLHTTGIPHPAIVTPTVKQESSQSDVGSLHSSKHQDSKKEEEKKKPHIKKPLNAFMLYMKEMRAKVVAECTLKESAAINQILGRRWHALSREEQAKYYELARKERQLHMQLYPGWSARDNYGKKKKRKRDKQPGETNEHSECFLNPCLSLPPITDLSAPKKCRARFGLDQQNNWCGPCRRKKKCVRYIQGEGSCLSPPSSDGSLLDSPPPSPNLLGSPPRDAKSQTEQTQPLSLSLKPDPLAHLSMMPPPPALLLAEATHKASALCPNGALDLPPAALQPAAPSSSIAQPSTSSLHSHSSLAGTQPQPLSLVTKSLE
The target in series [2] is T1, ZNFN3A1 (SMYD3). The experiment in a line: specificity control. The conditions noted are these: tags: GST fusion, E. coli.

GST, sequence (P08515 whole entry, one chain of several): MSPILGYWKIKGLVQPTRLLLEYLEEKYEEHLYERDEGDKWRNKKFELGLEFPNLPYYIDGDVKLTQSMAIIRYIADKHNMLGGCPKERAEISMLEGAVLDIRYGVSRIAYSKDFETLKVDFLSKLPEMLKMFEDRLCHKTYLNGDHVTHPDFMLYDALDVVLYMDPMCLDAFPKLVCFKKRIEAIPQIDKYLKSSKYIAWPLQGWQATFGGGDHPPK

B1: ZBE2 (Nkx2.8 ZNFN3A1-binding element) (dsDNA)
DNA 1: TTACGCCCTCCTGAAACTTGTCATCCTGAATCTTAGAGGGGCCC
DNA 2: GGGCCCCTCTAAGATTCAGGATGACAAGTTTCAGGAGGGCGTAA
Regarding B1, the results for the binding result in the series with GST and with ZNFN3A1 (SMYD3) [1] were “no binding” and “binds”, respectively.

B2: wtTBM (Tcf4-binding motif) (dsDNA)
DNA 1: CCCTTTGATCTTACC
DNA 2: GGTAAGATCAAAGGG
Take B2: the binding result was “no binding” in the series with GST, “binds” in the series with Tcf4 wild-type and “no binding” in the series with ZNFN3A1 (SMYD3) [2].

The values are drawn from US8221993, “Methods of detecting methyl transferase activity and methods of screening for methyl transferase activity modulators” (Onco Therapy Science, Inc.).
